Source: patent publication US20140087995A1 (published 2014)
Numbered stars: 1 amine (or outer) side, 2 acyl side, 3 side chain; on linkers, the order of the positions; unused ones are H or OH. Bridge positions count the residues as written; N and C are the ends. Side chains are listed from the residue outwards. Ends that are not written are not given here. * marks the point of attachment. C20 diacid = O=C(O)CCCCCCCCCCCCCCCCCCC(=O)*; γGlu = O=C(O)[C@H](CCC(=O)[*:2])N[*:1]; AEEA = NCCOCCOCC(=O)O

T1: human calcitonin receptor (human, UniProt P30988 25-474)
T1 sequence (looked up): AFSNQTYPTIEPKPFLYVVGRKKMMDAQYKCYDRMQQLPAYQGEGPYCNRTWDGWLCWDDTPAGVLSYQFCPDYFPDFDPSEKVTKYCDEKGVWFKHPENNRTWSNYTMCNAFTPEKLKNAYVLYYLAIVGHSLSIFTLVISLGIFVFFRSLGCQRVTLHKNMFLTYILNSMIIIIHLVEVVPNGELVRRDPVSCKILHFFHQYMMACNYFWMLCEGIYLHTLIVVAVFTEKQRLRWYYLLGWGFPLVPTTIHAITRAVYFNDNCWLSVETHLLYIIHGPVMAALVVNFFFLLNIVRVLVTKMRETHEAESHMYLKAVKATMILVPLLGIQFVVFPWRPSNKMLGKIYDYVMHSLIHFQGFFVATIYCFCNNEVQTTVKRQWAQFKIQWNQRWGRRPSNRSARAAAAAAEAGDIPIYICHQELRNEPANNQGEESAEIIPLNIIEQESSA

B1: N^ε1-[2-[2-[2-[[2-[2-[2-[[(4S)-4-carboxy-4-(19-carboxynonadecanoylamino)butanoyl]amino]ethoxy]ethoxy]acetyl]amino]ethoxy]ethoxy]acetyl]-[Arg17,Pro21,Pro27,Glu35 … (peptide)
peptide: K([AEEA-AEEA-γGlu-C20 diacid])CNTATCATQRLANFLRHSSPNFGAIPSSTNVGSETY-NH2
modifications: disulfide 2-7; N-terminus assumed
SMILES: CC[C@H](C)[C@H](NC(=O)[C@H](C)NC(=O)CNC(=O)[C@H](Cc1ccccc1)NC(=O)[C@H](CC(N)=O)NC(=O)[C@@H]1CCCN1C(=O)[C@H](CO)NC(=O)[C@H](CO)NC(=O)[C@H](Cc1c[nH]cn1)NC(=O)[C@H](CCCNC(=N)N)NC(=O)[C@H](CC(C)C)NC(=O)[C@H](Cc1ccccc1)NC(=O)[C@H](CC(N)=O)NC(=O)[C@H](C)NC(=O)[C@H](CC(C)C)NC(=O)[C@H](CCCNC(=N)N)NC(=O)[C@H](CCC(N)=O)NC(=O)[C@@H](NC(=O)[C@H](C)NC(=O)[C@@H]1CSSC[C@H](NC(=O)[C@@H](N)CCCCNC(=O)COCCOCCNC(=O)COCCOCCNC(=O)CC[C@H](NC(=O)CCCCCCCCCCCCCCCCCCC(=O)O)C(=O)O)C(=O)N[C@@H](CC(N)=O)C(=O)N[C@@H]([C@@H](C)O)C(=O)N[C@@H](C)C(=O)N[C@@H]([C@@H](C)O)C(=O)N1)[C@@H](C)O)C(=O)N1CCC[C@H]1C(=O)N[C@@H](CO)C(=O)N[C@@H](CO)C(=O)N[C@H](C(=O)N[C@@H](CC(N)=O)C(=O)N[C@H](C(=O)NCC(=O)N[C@@H](CO)C(=O)N[C@@H](CCC(=O)O)C(=O)N[C@H](C(=O)N[C@@H](Cc1ccc(O)cc1)C(N)=O)[C@@H](C)O)C(C)C)[C@@H](C)O
notes: analogue of human amylin; also called compound 25
B2: N^ε1-[2-[2-[2-[[(4S)-4-carboxy-4-(19-carboxynonadecanoylamino)butanoyl]amino]ethoxy]ethoxy]acetyl]-[Arg14,Arg17,Pro21,Pro27,Pro31]-h-amylin (peptide)
peptide: K([AEEA-γGlu-C20 diacid])CNTATCATQRLARFLRHSSPNFGAIPSSTPVGSNTY-NH2
modifications: disulfide 2-7; N-terminus assumed
SMILES: CC[C@H](C)[C@H](NC(=O)[C@H](C)NC(=O)CNC(=O)[C@H](Cc1ccccc1)NC(=O)[C@H](CC(N)=O)NC(=O)[C@@H]1CCCN1C(=O)[C@H](CO)NC(=O)[C@H](CO)NC(=O)[C@H](Cc1c[nH]cn1)NC(=O)[C@H](CCCNC(=N)N)NC(=O)[C@H](CC(C)C)NC(=O)[C@H](Cc1ccccc1)NC(=O)[C@H](CCCNC(=N)N)NC(=O)[C@H](C)NC(=O)[C@H](CC(C)C)NC(=O)[C@H](CCCNC(=N)N)NC(=O)[C@H](CCC(N)=O)NC(=O)[C@@H](NC(=O)[C@H](C)NC(=O)[C@@H]1CSSC[C@H](NC(=O)[C@@H](N)CCCCNC(=O)COCCOCCNC(=O)CC[C@H](NC(=O)CCCCCCCCCCCCCCCCCCC(=O)O)C(=O)O)C(=O)N[C@@H](CC(N)=O)C(=O)N[C@@H]([C@@H](C)O)C(=O)N[C@@H](C)C(=O)N[C@@H]([C@@H](C)O)C(=O)N1)[C@@H](C)O)C(=O)N1CCC[C@H]1C(=O)N[C@@H](CO)C(=O)N[C@@H](CO)C(=O)N[C@H](C(=O)N1CCC[C@H]1C(=O)N[C@H](C(=O)NCC(=O)N[C@@H](CO)C(=O)N[C@@H](CC(N)=O)C(=O)N[C@H](C(=O)N[C@@H](Cc1ccc(O)cc1)C(N)=O)[C@@H](C)O)C(C)C)[C@@H](C)O
notes: analogue of human amylin; also called compound 64
B3: N^ε1-[2-[2-[2-[[(4S)-4-carboxy-4-(19-carboxynonadecanoylamino)butanoyl]amino]ethoxy]ethoxy]acetyl]-[Arg17,Pro21,Pro27,Pro28,Pro34]-h-amylin (peptide)
peptide: K([AEEA-γGlu-C20 diacid])CNTATCATQRLANFLRHSSPNFGAIPPSTNVGPNTY-NH2
modifications: disulfide 2-7; N-terminus assumed
SMILES: CC[C@H](C)[C@H](NC(=O)[C@H](C)NC(=O)CNC(=O)[C@H](Cc1ccccc1)NC(=O)[C@H](CC(N)=O)NC(=O)[C@@H]1CCCN1C(=O)[C@H](CO)NC(=O)[C@H](CO)NC(=O)[C@H](Cc1c[nH]cn1)NC(=O)[C@H](CCCNC(=N)N)NC(=O)[C@H](CC(C)C)NC(=O)[C@H](Cc1ccccc1)NC(=O)[C@H](CC(N)=O)NC(=O)[C@H](C)NC(=O)[C@H](CC(C)C)NC(=O)[C@H](CCCNC(=N)N)NC(=O)[C@H](CCC(N)=O)NC(=O)[C@@H](NC(=O)[C@H](C)NC(=O)[C@@H]1CSSC[C@H](NC(=O)[C@@H](N)CCCCNC(=O)COCCOCCNC(=O)CC[C@H](NC(=O)CCCCCCCCCCCCCCCCCCC(=O)O)C(=O)O)C(=O)N[C@@H](CC(N)=O)C(=O)N[C@@H]([C@@H](C)O)C(=O)N[C@@H](C)C(=O)N[C@@H]([C@@H](C)O)C(=O)N1)[C@@H](C)O)C(=O)N1CCC[C@H]1C(=O)N1CCC[C@H]1C(=O)N[C@@H](CO)C(=O)N[C@H](C(=O)N[C@@H](CC(N)=O)C(=O)N[C@H](C(=O)NCC(=O)N1CCC[C@H]1C(=O)N[C@@H](CC(N)=O)C(=O)N[C@H](C(=O)N[C@@H](Cc1ccc(O)cc1)C(N)=O)[C@@H](C)O)C(C)C)[C@@H](C)O
notes: analogue of human amylin; also called compound 55
B4: N^ε1-[2-[2-[2-[[(4S)-4-carboxy-4-(19-carboxynonadecanoylamino)butanoyl]amino]ethoxy]ethoxy]acetyl]-[Ala14,Arg17,Pro21,Pro27,Pro31]-h-amylin (peptide)
peptide: K([AEEA-γGlu-C20 diacid])CNTATCATQRLAAFLRHSSPNFGAIPSSTPVGSNTY-NH2
modifications: disulfide 2-7; N-terminus assumed
SMILES: CC[C@H](C)[C@H](NC(=O)[C@H](C)NC(=O)CNC(=O)[C@H](Cc1ccccc1)NC(=O)[C@H](CC(N)=O)NC(=O)[C@@H]1CCCN1C(=O)[C@H](CO)NC(=O)[C@H](CO)NC(=O)[C@H](Cc1c[nH]cn1)NC(=O)[C@H](CCCNC(=N)N)NC(=O)[C@H](CC(C)C)NC(=O)[C@H](Cc1ccccc1)NC(=O)[C@H](C)NC(=O)[C@H](C)NC(=O)[C@H](CC(C)C)NC(=O)[C@H](CCCNC(=N)N)NC(=O)[C@H](CCC(N)=O)NC(=O)[C@@H](NC(=O)[C@H](C)NC(=O)[C@@H]1CSSC[C@H](NC(=O)[C@@H](N)CCCCNC(=O)COCCOCCNC(=O)CC[C@H](NC(=O)CCCCCCCCCCCCCCCCCCC(=O)O)C(=O)O)C(=O)N[C@@H](CC(N)=O)C(=O)N[C@@H]([C@@H](C)O)C(=O)N[C@@H](C)C(=O)N[C@@H]([C@@H](C)O)C(=O)N1)[C@@H](C)O)C(=O)N1CCC[C@H]1C(=O)N[C@@H](CO)C(=O)N[C@@H](CO)C(=O)N[C@H](C(=O)N1CCC[C@H]1C(=O)N[C@H](C(=O)NCC(=O)N[C@@H](CO)C(=O)N[C@@H](CC(N)=O)C(=O)N[C@H](C(=O)N[C@@H](Cc1ccc(O)cc1)C(N)=O)[C@@H](C)O)C(C)C)[C@@H](C)O
notes: analogue of human amylin; also called compound 72
B5: N^ε1-[2-[2-[2-[[(4S)-4-carboxy-4-(19-carboxynonadecanoylamino)butanoyl]amino]ethoxy]ethoxy]acetyl]-[Arg17,Pro21,Pro27,Glu35]-h-amylin (peptide)
peptide: K([AEEA-γGlu-C20 diacid])CNTATCATQRLANFLRHSSPNFGAIPSSTNVGSETY-NH2
modifications: disulfide 2-7; N-terminus assumed
SMILES: CC[C@H](C)[C@H](NC(=O)[C@H](C)NC(=O)CNC(=O)[C@H](Cc1ccccc1)NC(=O)[C@H](CC(N)=O)NC(=O)[C@@H]1CCCN1C(=O)[C@H](CO)NC(=O)[C@H](CO)NC(=O)[C@H](Cc1c[nH]cn1)NC(=O)[C@H](CCCNC(=N)N)NC(=O)[C@H](CC(C)C)NC(=O)[C@H](Cc1ccccc1)NC(=O)[C@H](CC(N)=O)NC(=O)[C@H](C)NC(=O)[C@H](CC(C)C)NC(=O)[C@H](CCCNC(=N)N)NC(=O)[C@H](CCC(N)=O)NC(=O)[C@@H](NC(=O)[C@H](C)NC(=O)[C@@H]1CSSC[C@H](NC(=O)[C@@H](N)CCCCNC(=O)COCCOCCNC(=O)CC[C@H](NC(=O)CCCCCCCCCCCCCCCCCCC(=O)O)C(=O)O)C(=O)N[C@@H](CC(N)=O)C(=O)N[C@@H]([C@@H](C)O)C(=O)N[C@@H](C)C(=O)N[C@@H]([C@@H](C)O)C(=O)N1)[C@@H](C)O)C(=O)N1CCC[C@H]1C(=O)N[C@@H](CO)C(=O)N[C@@H](CO)C(=O)N[C@H](C(=O)N[C@@H](CC(N)=O)C(=O)N[C@H](C(=O)NCC(=O)N[C@@H](CO)C(=O)N[C@@H](CCC(=O)O)C(=O)N[C@H](C(=O)N[C@@H](Cc1ccc(O)cc1)C(N)=O)[C@@H](C)O)C(C)C)[C@@H](C)O
notes: analogue of human amylin; also called compound 26

Biological target: T1, human calcitonin receptor
Assay: cell-based or functional assay

Row | hCTR funct. EC50 | Binder
1 | 10 nM | B1
2 | 22.9 nM | B2
3 | 0.731 nM | B3
4 | 4.76 nM | B4
5 | 6.34 nM | B5
